# According to patent publication US20110250133A1, “GASTRIN […] PEPTIDE COMPOUNDS” (priority 2003, published 2011):
# Experiments:
# [1] = biological target: gastrin releasing peptide receptor (GRP-R) (human) (UniProt P30550); assay: saturation binding of carrier-added radioligand on PC-3 cells, 4 C
# [2] = biological target: gastrin releasing peptide receptor (GRP-R) (human) (UniProt P30550); assay: competition with 177Lu-AMBA on PC-3 cells, 4 C
# [3] = biological target: gastrin releasing peptide receptor (GRP-R) (human) (UniProt P30550); assay: competition with 67Ga-AMBA on PC-3 cells, 4 C
# [4] = biological target: gastrin releasing peptide receptor (GRP-R) (human) (UniProt P30550); assay: competition with 125I-universal ligand, receptor autoradiography on human cancer tissue
# [5] = biological target: human neuromedin-B preferring receptor (NMB-R) (human) (UniProt P28336); assay: as above
# [6] = biological target: gastrin releasing peptide receptor (GRP-R) (human) (UniProt P30550); assay: receptor autoradiography with 177Lu-L70
# mouse GRP-R (mouse) = mouse GRP-R (mouse) (UniProt P21729); assay: receptor autoradiography with 177Lu-L70
# [7] = biological target: human neuromedin-B preferring receptor (NMB-R) (human) (UniProt P28336); assay: receptor autoradiography with 177Lu-L70
# [8] = biological target: human bombesin receptor subtype 3 (BB3-R) (human) (UniProt P32247); assay: receptor autoradiography with 177Lu-L70
# [9] = biological target: gastrin releasing peptide receptor (GRP-R) (human) (UniProt P30550); assay: saturation binding on PC-3 cells
# [10] = system: T47D human breast cancer cells; assay: Effect of drug treatment on GRP receptor binding (177Lu-AMBA) in T47D cells; type: cell-based; conditions: T-47D; relative to untreated control; drug 0.1-1.0 μM (4-OH Tamoxifen 0.001-0.1 μM)
# From the text: T-47D breast cancer cells (human metastatic mammary gland ductal adenocarcinoma isolated from pleural effusion, ER+, PR+) were obtained from the American Type Culture Collection.
# [11] = system: ZR-75-1 human breast cancer cells; assay: Effect of 4-hydroxytamoxifen on GRP receptor binding and glucose uptake in ZR-75-1 cells; type: cell-based
# Protocol: Method: ZR-75-1 breast cancer cell line (human ductal carcinoma with estrogen receptor) was obtained from the American Type Culture Collection (ATCC).
# ZR-75-1 cells were plated on Day 0 (40 k/well 96-well PE Scintiplate). […] To determine the cell numbers and the proliferation, 100 uL of 10% CCK—F solution in DPBS (Molecular technologies) was added to the same plate, incubated for 30 min at 37° C. and the relative fluorescence (RFU) measured at 535 nm. Based on the cell numbers and the ^177Lu-binding, the Bmax (fmoles bound/million cells) was calculated.
# The cell numbers were determined with CCK—F treatment as described above.
# [12] = system: PC-3 prostate cancer cells; assay: Effect of drug treatment on GRP receptor binding (177Lu-AMBA) in PC-3 cells; type: cell-based, human; conditions: PC-3; drug 0.1-1.0 μM (4-OH Tamoxifen 0.001-0.1 μM)
# Protocol: (§1) RPMI 1640 supplemented with 20 mM HEPES, 0.1% BSA (w/v), 0.5 mM PMSF (AEBSF), bacitracin (50 mg/500 ml), pH 7.4.
# (§2) Incubations were stopped by the addition of 200 μL of ice-cold binding buffer. Plates were washed three more times with binding buffer, 140 μL of scintillation fluid was added to each well, the plates were sealed and analyzed on a Microβ plate reader (Microbeta Trilux, Perkin-Elmer).
# PC-3 (human prostate adenocarcinoma, bone metastasis, AR-, ER) were obtained from the American Type Culture Collection. The growth medium for PC-3 cells is RPMI 1640 (10-041-CM, Mediatech, Inc), supplemented with 10% heat inactivated FBS (Hyclone, SH30070.03) and PSF-1× (as in Example LXVI). The binding buffer, lapatinib solutions, treatment method and cell binding assay is the same as in Example LXVI.
# [13] = system: ZR-75-1 human breast cancer cells; assay: Longterm (2-12 days) effect of 4-hydroxytamoxifen on GRP receptor binding in ZR-75-1 cells; type: cell-based
# Protocol: The ZR-75-1 cells were seeded at 15K per well onto two 96-well scintiplates on the same day as 2 days study.
# [14] = system: BT-474 human breast cancer cells; assay: Effect of drug treatment on GRP receptor binding (177Lu-AMBA) in BT-474 cells; type: cell-based; conditions: BT-474; relative to untreated control; drug 0.1-1.0 μM (4-OH Tamoxifen 0.001-0.1 μM)
# Protocol: BT-474 breast cancer cells (human primary invasive ductal carcinoma; ER+, PR+, amplified HER2/neu+) were obtained from the American Type Culture Collection. The growth medium for BT-474 cells is Hybri-care Medium (Cat No: 46X, ATCC) supplemented with 10% heat inactivated FBS (Hyclone, SH30070.03), 0.2% NaHCO3, and antibiotic/antimycotic “PSF-1×” (GibcoBRL, 15240-062) for a final concentration of penicillin-streptomycin (1×, 100 units/mL), and fungizone (0.25 μg/mL). […] Cells for binding experiments were plated on Day 0 at 5.6×10^4 cells/cm^2 in 96-well white/clear bottom microtiter plates (Falcon Optilux-I), or 96 well black/clear collagen I cellware plates (Beckton Dickinson Biocoat).
# as §1, §2
# Treatment: BT-474 cells were plated on Day 0 and treated on Days 1 and 2 (DT1, DT2).
# [15] = system: human PC-3 nude mouse model; type: in vivo
# Protocol: For biodistribution studies, the radiolabeled compounds were prepared as described above except that a 1:1 molar ratio of ligand to Lutetium was used to guarantee complete chelation of all starting ligand. The HPLC peak containing the resulting ^177Lu complex was collected in 1 mL of 9:1 Bacteriostatic saline/ASCOR L500® solution containing 0.1% HSA, and the organic solvents were removed using a speed-vacuum device. The remaining solution was further diluted to the required radioconcentration using Bacteriostatic saline/ASCOR L500® Ascorbic Acid Injection USP mixed in a 9 to 1 [v/v]) ratio. The radiochemical purity of all samples was […].
# 10-50 μCi of the HPLC purified compounds were administered to each mouse by i.v. tail vein injection, n=4 per group. […] Radioactivity was assayed in a gamma counter. The data was expressed as percentage of the total administered radioactivity (% ID) for the urine combined with the bladder, as well as for the blood pool; and percentage of the total administered radioactivity per gram (% ID/g) for all the other tested organs.
# [16] = breast cancer patients; cited from earlier work
# NMB-R = biological target: T1, NMB-R (Rattus norvegicus, UniProt P24053); assay: Competition with 125I-NMB for NMB-R in C6 cells (linker specificity); type: binding, rodent; conditions: from IC50 with 125I-NMB (C6) and 125I-BBN (PC3); cut off 10x the IC50 of [Tyr4]-BBN;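 further: test cells: rodent glioblastoma C6 line carrying NMB-R, human prostate cancer PC3 line carrying GRP-R, affinity fitted by one-site competition nonlinear regression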
# T1 construct: C6, an NMB-R expressing rodent glioblastoma cell line; host or cells: C6 glioblastoma cells, intact adherent cells
# T1 sequence (P24053 1-390): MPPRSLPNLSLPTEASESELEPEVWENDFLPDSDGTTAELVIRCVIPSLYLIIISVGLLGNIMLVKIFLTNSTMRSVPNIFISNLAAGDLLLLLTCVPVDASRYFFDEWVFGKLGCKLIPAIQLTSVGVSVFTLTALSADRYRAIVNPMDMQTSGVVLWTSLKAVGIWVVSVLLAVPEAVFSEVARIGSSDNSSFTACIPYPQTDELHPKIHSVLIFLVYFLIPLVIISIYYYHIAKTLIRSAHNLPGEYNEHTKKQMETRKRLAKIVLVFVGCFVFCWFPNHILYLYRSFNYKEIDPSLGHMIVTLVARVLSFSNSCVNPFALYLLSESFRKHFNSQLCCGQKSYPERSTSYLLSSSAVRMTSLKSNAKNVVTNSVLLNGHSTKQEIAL
# Protocol: Two cell lines, C6, an NMB-R expressing rodent glioblastoma cell line and PC3, a GRP-R expressing human prostate cancer cell line, were used in this assay. The affinity of various unlabeled compounds for each receptor subtype (NMB-R and GRP-R) was determined indirectly by measuring its ability to compete with the binding of ^125I-NMB or ^125I-BBN to its corresponding receptors in C6 and PC3 cells.
# Cells for the assays were plated at a concentration of 9.6×10^4/well in 48 well poly-lysine coated plates (Beckton Dickinson Biocoat). PC3 were obtained from ATCC(CRL-1435) and cultured in RPMI 1640 (ATCC) supplemented with 2 mM L-glutamine, 1.5 g/L Sodium bicarbonate, 10 mM HEPES and 10% FBS. […] PC3 cells for the assays were plated at a concentration of 2.0×10^4 cells/well in 96-well white/clear bottom plates (Falcon Optilux-I). Plates were used for the assays on day 2 of the post-plating.
# RPMI 1640 (ATCC) containing 25 mM HEPES, 0.2% BSA fraction V, 1.0 mM AEBSF (CAS # 3087-99-7) and 0.1% Bacitracin (CAS # 1405-87-4), pH 7.4. Custom made ^125I-[Tyr^0]NMB, >2.0 Ci/μmole (Amersham Life Science) [^125I-NMB] and commercially available ^125I-[Tyr^4]BBN, >2.0 Ci/μmole (Perkin Elmer Life Science) [^125I-BBN] were used as radioligands.
# Using a 48-well plate assay system (for C6 study) competition experiments were performed using ^125I-NMB. […] Selection of compounds for the assay was based on linker subtype.
# The binding parameters obtained from the studies were analyzed using a one-site competition non-linear regression analysis with GraphPad Prism. The relative affinity of various compounds for NMB-R in C6 cells were compared with those obtained using commercially available [Tyr^4]-BBN and [Tyr^0]-NMB. To distinguish the GRP-R preferring compounds from NMB-R plus GRP-R preferring compounds, IC50 values obtained for each compound were compared with those obtained from [Tyr^4-BBN with ^125I-NMB on C6 cells.
# [17] = system: PC3 tumor-bearing nude mouse model; assay: Radiotherapy efficacy studies in the PC3 tumor-bearing nude mouse model; type: in vivo; conditions: 177Lu labeled
# Protocol: Radiotherapy studies were performed using the PC3 tumor-bearing nude mouse model. […] (n=12 for each treatment group for up to 30 days, and n=36 for the pooled untreated control group for up to 31 days). […] The subjects were housed in a barrier environment for the duration of the study. Body weight and tumor size (by caliper measurement) were collected on each subject 3 times per week for the duration of the study. Criteria for early termination included: death; loss of total body weight (TBW) equal to or greater than 20%; tumor size equal to or greater than 2 cm^3.
# [18] = system: PC3 tumor-bearing nude mice; type: in vivo, mouse; conditions: mouse, in vivo
# Protocol: In all studies, mice were administered 100 μL of ^177Lu-labeled test compound at 200 μCi/kg, i.v., with a residence time of 1 and 24 h per group (n=3-4). Tissues were analyzed in an LKB 1282 CompuGamma counter with appropriate standards.
# PC3 cells = assay: Internalization and efflux assay in PC3 cells; type: cell-based, human; conditions: 125I-BBN or Lu-177 complexes
# Protocol: These studies were conducted in a 96-well plate. […] Incubations were stopped by the addition of 200 μl of ice-cold binding buffer. Plates were washed twice with binding buffer. To remove surface-bound radioligand, the cells were incubated with 0.2M acetic acid (in saline), pH 2.8 for 2 min. Plates were centrifuged and the acid wash media were collected to determine the amount of radioactivity which was not internalized. The cells were collected to determine the amount of internalized ^125I-BBN, and all samples were analyzed in the gamma counter. Data for the internalization assay was normalized by comparing counts obtained at the various time points with the counts obtained at the final time point (T=40 min).
# For the efflux studies, after loading the PC3 cells with ^125I-BBN or radiolabeled compounds of the invention for 40 min at 37° C., the unbound material was filtered, and the % of internalization was determined as above. The cells were then resuspended in binding buffer at 37° C. for up to 3 h.
# [19] = ZR-75-1, long-term treatment, 100 nM
# Sequence of gastrin releasing peptide receptor (GRP-R) (human) (P30550 whole entry): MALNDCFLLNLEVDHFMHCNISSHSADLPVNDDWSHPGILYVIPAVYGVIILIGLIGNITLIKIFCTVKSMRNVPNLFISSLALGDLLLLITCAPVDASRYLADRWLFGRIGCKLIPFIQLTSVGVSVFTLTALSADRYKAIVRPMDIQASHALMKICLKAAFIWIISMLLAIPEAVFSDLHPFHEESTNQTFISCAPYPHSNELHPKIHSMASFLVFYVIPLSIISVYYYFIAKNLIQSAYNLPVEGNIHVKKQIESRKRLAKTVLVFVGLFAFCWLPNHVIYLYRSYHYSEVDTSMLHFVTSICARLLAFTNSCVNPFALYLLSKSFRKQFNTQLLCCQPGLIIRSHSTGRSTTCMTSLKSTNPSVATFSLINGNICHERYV
# Sequence of human neuromedin-B preferring receptor (NMB-R) (human) (P28336 whole entry): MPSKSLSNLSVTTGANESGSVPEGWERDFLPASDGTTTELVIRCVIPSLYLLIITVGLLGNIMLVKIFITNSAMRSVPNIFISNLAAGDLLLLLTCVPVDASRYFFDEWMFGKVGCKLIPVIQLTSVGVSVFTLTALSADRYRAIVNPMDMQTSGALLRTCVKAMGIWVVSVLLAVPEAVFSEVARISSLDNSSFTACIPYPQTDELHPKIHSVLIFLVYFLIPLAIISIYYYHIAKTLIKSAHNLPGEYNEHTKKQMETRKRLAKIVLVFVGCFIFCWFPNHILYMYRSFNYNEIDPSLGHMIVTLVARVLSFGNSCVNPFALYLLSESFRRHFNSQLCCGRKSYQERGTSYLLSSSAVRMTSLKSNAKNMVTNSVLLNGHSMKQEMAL
# Sequence of human bombesin receptor subtype 3 (BB3-R) (human) (P32247 whole entry): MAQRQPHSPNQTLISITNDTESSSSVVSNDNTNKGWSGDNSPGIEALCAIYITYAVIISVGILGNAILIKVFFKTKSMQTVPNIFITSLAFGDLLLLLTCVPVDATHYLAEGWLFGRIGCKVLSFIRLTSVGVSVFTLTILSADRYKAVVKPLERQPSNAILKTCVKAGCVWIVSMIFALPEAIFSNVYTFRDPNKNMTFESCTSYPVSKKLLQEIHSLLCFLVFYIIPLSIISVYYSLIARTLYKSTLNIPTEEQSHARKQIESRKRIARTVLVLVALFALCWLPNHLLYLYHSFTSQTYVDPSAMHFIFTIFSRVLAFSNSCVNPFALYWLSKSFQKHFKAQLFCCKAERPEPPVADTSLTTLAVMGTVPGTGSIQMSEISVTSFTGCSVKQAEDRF
# Sequence of mouse GRP-R (mouse) (P21729 whole entry): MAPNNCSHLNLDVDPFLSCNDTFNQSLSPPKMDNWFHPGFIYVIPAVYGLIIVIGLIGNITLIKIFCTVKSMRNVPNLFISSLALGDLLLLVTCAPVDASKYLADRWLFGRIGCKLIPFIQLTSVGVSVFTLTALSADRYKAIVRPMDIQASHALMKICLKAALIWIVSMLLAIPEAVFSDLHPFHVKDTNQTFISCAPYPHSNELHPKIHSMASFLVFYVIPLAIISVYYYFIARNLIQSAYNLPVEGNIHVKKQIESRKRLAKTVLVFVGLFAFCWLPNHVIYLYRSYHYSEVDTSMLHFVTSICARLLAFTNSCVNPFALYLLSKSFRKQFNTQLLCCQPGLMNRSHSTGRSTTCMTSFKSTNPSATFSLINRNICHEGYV
compound,measurement,setting,value
67Ga-AMBA (peptide),Binding capacity (Bmax) (fmoles/1 × 10^6 cells),[1],402
same,Kd,[1],0.46 nM
same,Receptors/cell (receptors/cell),[1],242000
175Lu-L70 (peptide),EC50,[2],1.47 nM
same,EC50,[3],1.28 nM
same,IC50,[4],0.8 nM
same,IC50,[5],0.9 nM
177Lu-L70 (peptide),tissues labelled / tissues tested (of 4 (Prostate Ca)),[6],4
same,"tissues labelled / tissues tested (of 5 (Chronic pancreatitis, acini))",[6],5
same,tissues labelled / tissues tested (of 6 (Bronchial carcinoid)),[6],2
same,tissues labelled / tissues tested (of 6 (Renal Ca)),[6],5
same,"tissues labelled / tissues tested (of 7 (Colon Ca, smooth muscle))",[6],7
same,"tissues labelled / tissues tested (of 7 (Colon Ca, tumor))",[6],3
same,"tissues labelled / tissues tested (of 7 (Human pancreas, acini))",[6],1
same,tissues labelled / tissues tested (of 8 (Mammary Ca)),[6],8
same,"tissues labelled / tissues tested (of 4 (Mouse pancreas, acini))",mouse GRP-R (mouse),4
same,tissues labelled / tissues tested (of 8 (Ileal carcinoid)),[7],8
same,tissues labelled / tissues tested (of 6 (Bronchial carcinoid)),[8],0
same,Binding capacity (Bmax) (fmoles/1 × 10^6 cells),[9],408
same,Kd,[9],0.44 nM
same,Receptors/cell (receptors/cell),[9],245000
"CC/C(=C(\c1ccc(O)cc1)c1ccc(OCCN(C)C)cc1)c1ccccc1 [4-OH Tamoxifen, 4-hydroxytamoxifen]",decrease in 177Lu-AMBA binding (GRP receptor specific signal per cell),[10],up to 35%
same,decrease in glycolysis (2-NBDG uptake),[11]; ZR-75-1,~20%
same,change in cell proliferation,"[11]; ZR-75-1, 0-0.1 μM",little change
same,change in GRP receptor specific signal per cell (177Lu-AMBA binding),[12],no change
same,inhibition of proliferation,"[13]; ZR-75-1, 100 nM, by 12 day",28%
same,2-NBDG uptake,[13]; [19],smaller changes
same,177Lu-AMBA uptake,[13]; [19],significant reduction
same,decrease in 177Lu-AMBA binding (GRP receptor specific signal per cell),[14],up to 73%
CC1(N(CC(=O)O)CC(=O)O)CN(CC(=O)O)[C@@H]2CCCC[C@H]2N(CC(=O)O)C1 [XX100],"Blood % ID (7 d column, *72 h timepoint)","[15]; 177Lu complex, i.v., PC-3 nude mouse, 72 h",0.00 ± 0.00 % ID
same,clearance and localization of radioactivity,"[15]; Lu-177 complexes, human PC-3 nude mouse model, 1 h, 1 and 7 days",rapidly cleared from the body with little residual localization in any organs or tissue
Ga-AMBA (non-radioactive) (peptide),EC50,[2],1.15 nM
same,EC50,[3],1 nM
Herceptin®,overall response,[16],9%
"N-[4-[[[[[4,7,10-Tris(carboxymethyl)-1,4,7,10-tetraazacyclododec-1-yl]acetyl]amino]acetyl]amino]benzoyl]-L-glutaminyl-L-tryptophyl-L-alanyl-L-valyl-glycyl-L-histidyl-L-leucyl-L-methioninamide [Compound L70]",receptor subtype preference (GRP-R vs NMB-R),NMB-R,dual affinity
same,"survival, Short Term Efficacy Study","[17]; 30 mCi/kg, up to 30 days, vs untreated and DO3A-monoamide-Aoc-QWAVGHLM-NH2 control",increased survival
same,"survival, Long Term Efficacy Study","[17]; same dose, up to 120 days, vs controls",significantly increased survival
same,uptake in the tumor,[18],much higher
same,Internalisation (40 minutes),PC3 cells; 40 min at 37° C.,70%
same,Efflux (2 h),PC3 cells; 2 h at 37° C. after 40 min loading,12%
"[DTyr6, βAla11, Phe13, Nle14]-BBN(6-14) (peptide)",IC50,[4],0.7 nM
same,IC50,[5],0.8 nM
